Source: paper PMC13276077

Key:
HisMBP-DNMT3A 1-427 = HisMBP-DNMT3A 1-427 (UniProt Q9Y6K1 1-427); test: EMSA; 20 mM HEPES pH 7.5, 75 mM NaCl, 125 mM KCl, 50 uM EDTA, 2.5 mM beta-mercaptoethanol, 5% glycerol, BSA, 1.58 uM 47 bp competitor DNA (nucleosome assays; absent with free DNA), room temperature 30 min; details: protein: recombinant; tags: His-MBP; label: 5' 6-FAM; blunt
HisMBP-MeCP2 258-309 = HisMBP-MeCP2 258-309 (Homo sapiens, UniProt P51608 258-309); test: as above; details: protein: recombinant; tags: His-MBP; label: 5' 6-FAM; blunt
[1] = target: HisMBP-MeCP2 205-257 (DIR) (Homo sapiens, UniProt P51608 205-257); test: as above; details: protein: recombinant; tags: His-MBP; label: 5' 6-FAM; blunt
HisMBP-MeCP2 162-309 = HisMBP-MeCP2 162-309 (Homo sapiens, UniProt P51608 162-309); test: as above; details: protein: recombinant; tags: His-MBP; label: 5' 6-FAM; blunt
HisMBP-MeCP2 272-309 = HisMBP-MeCP2 272-309 (Homo sapiens, UniProt P51608 272-309); test: as above; details: protein: recombinant; tags: His-MBP; label: 5' 6-FAM; blunt
HisMBP-MeCP2 205-309 = HisMBP-MeCP2 205-309 (Homo sapiens, UniProt P51608 205-309); test: as above; details: protein: recombinant; tags: His-MBP; label: 5' 6-FAM; blunt
[2] = target: HisMBP-DNMT3A 1-427 K54A K56A (UniProt Q9Y6K1 1-427, K54A;K56A); test: as above; details: protein: recombinant; tags: His-MBP; label: 5' 6-FAM; blunt
HisMBP-DNMT3A 1-427 K54A K56A, sequence (Q9Y6K1 1-427 K54A/K56A): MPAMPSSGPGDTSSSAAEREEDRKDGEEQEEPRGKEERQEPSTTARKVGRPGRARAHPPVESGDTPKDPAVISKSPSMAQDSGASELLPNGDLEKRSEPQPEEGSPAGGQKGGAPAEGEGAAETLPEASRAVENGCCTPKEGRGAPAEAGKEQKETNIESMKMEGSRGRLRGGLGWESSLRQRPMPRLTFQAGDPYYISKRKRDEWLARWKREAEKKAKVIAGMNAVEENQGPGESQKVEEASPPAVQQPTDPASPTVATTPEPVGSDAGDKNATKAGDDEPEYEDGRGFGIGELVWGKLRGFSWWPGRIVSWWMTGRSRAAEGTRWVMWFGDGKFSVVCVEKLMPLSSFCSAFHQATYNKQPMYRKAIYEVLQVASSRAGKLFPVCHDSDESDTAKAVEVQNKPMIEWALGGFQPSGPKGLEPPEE

[3] = target: MeCP2 full-length, e2 isoform;histone octamer (Homo sapiens;, UniProt P51608;P0C0S8;P62807;P68431;P62805 1-486;2-130;2-126;2-136;2-103, |H2B T115C;H3.1 C96S;C110A); test: EMSA; 20 mM HEPES pH 7.5, 75 mM NaCl, 125 mM KCl, 50 uM EDTA, 2.5 mM beta-mercaptoethanol, 5% glycerol, BSA, 1.58 uM 47 bp competitor DNA (nucleosome assays); absent w
[4] = target: T1, MeCP2 MBD;histone octamer (Homo sapiens;Homo sapiens, UniProt P51608;P0C0S8;P62807;P68431;P62805 77-167;2-130;2-126;2-136;2-103, |H3.1 C96S;C110A); test: as above
[5] = target: T2, MeCP2 MBD;histone octamer, H3Kc27me3 (Homo sapiens;Homo sapiens, UniProt P51608;P0C0S8;P62807;P68431;P62805 77-167;2-130;2-126;2-136;2-103, |H3.1 K27C (trimethyl-lysine analogue, Kc27me3);C96S;C110A); test: EMSA; H3K27me3 (H3Kc27me3) histone octamer; 20 mM HEPES pH 7.5, 75 mM NaCl, 125 mM KCl, 50 uM EDTA, 2.5 mM beta-mercaptoethanol, 5% glycerol, BSA, 1.58 uM 47 bp competitor DNA (nucleosome assays); absent w
[6] = target: MeCP2 full-length, e2 isoform;histone H1.0 1-97;histone octamer (Homo sapiens;Homo sapiens;, UniProt P51608;P07305;P0C0S8;P62807;P68431;P62805 1-486;1-97;2-130;2-126;2-136;2-103, ||H2B T115C;H3.1 C96S;C110A); test: EMSA; H1.0 residues 1-97 pre-bound (chromatosome); 20 mM HEPES pH 7.5, 75 mM NaCl, 125 mM KCl, 50 uM EDTA, 2.5 mM beta-mercaptoethanol, 5% glycerol, BSA, 1.58 uM 47 bp competitor DNA (nucleosome assays); absent w
[7] = target: T3, MeCP2 MBD;histone octamer, tailless H3 (Homo sapiens;Homo sapiens, UniProt P51608;P0C0S8;P62807;P68431;P62805 77-167;2-130;2-126;26-136;2-103, |H3.1 del1-24;A25C;C96S;C110A); test: EMSA; H3-tailless histone octamer; 20 mM HEPES pH 7.5, 75 mM NaCl, 125 mM KCl, 50 uM EDTA, 2.5 mM beta-mercaptoethanol, 5% glycerol, BSA, 1.58 uM 47 bp competitor DNA (nucleosome assays); absent w
[8] = target: MeCP2 full-length, e2 isoform;histone H1.0 25-97;histone octamer (Homo sapiens;Homo sapiens;, UniProt P51608;P07305;P0C0S8;P62807;P68431;P62805 1-486;25-97;2-130;2-126;2-136;2-103, ||H2B T115C;H3.1 C96S;C110A); test: EMSA; H1.0 residues 25-97 pre-bound (chromatosome); 20 mM HEPES pH 7.5, 75 mM NaCl, 125 mM KCl, 50 uM EDTA, 2.5 mM beta-mercaptoethanol, 5% glycerol, BSA, 1.58 uM 47 bp competitor DNA (nucleosome assays); absent w
[9] = target: MeCP2 MBD;histone octamer, acidic patch mutant (Homo sapiens;Homo sapiens, UniProt P51608;P0C0S8;P62807;P68431;P62805 77-167;2-130;2-126;2-136;2-103, |H2A E61A;E91A;E92A;H2B E113A;H3.1 C96S;C110A); test: EMSA; acidic patch mutant histone octamer; no competitor DNA; 20 mM HEPES pH 7.5, 75 mM NaCl, 125 mM KCl, 50 uM EDTA, 2.5 mM beta-mercaptoethanol, 5% glycerol, BSA, 1.58 uM 47 bp competitor DNA (nucleosome assays); absent w
[10] = target: MeCP2 full-length, e2 isoform;histone octamer, acidic patch mutant (Homo sapiens;Homo sapiens, UniProt P51608;P0C0S8;P62807;P68431;P62805 1-486;2-130;2-126;2-136;2-103, |H2A E61A;E91A;E92A;H2B E113A;H3.1 C96S;C110A); test: as above
[11] = target: MeCP2 full-length, e2 isoform;histone octamer (Homo sapiens;Homo sapiens, UniProt P51608;P0C0S8;P62807;P68431;P62805 1-486;2-130;2-126;2-136;2-103, |H3.1 C96S;C110A); test: EMSA; no competitor DNA; 20 mM HEPES pH 7.5, 75 mM NaCl, 125 mM KCl, 50 uM EDTA, 2.5 mM beta-mercaptoethanol, 5% glycerol, BSA, 1.58 uM 47 bp competitor DNA (nucleosome assays); absent w
[12] = target: T1, MeCP2 MBD;histone octamer; test: as above
[13] = target: T3, MeCP2 MBD;histone octamer, tailless H3; test: EMSA; H3-tailless histone octamer; no competitor DNA; 20 mM HEPES pH 7.5, 75 mM NaCl, 125 mM KCl, 50 uM EDTA, 2.5 mM beta-mercaptoethanol, 5% glycerol, BSA, 1.58 uM 47 bp competitor DNA (nucleosome assays); absent w
[14] = target: MeCP2 full-length, e2 isoform;histone octamer, tailless H3 (Homo sapiens;Homo sapiens, UniProt P51608;P0C0S8;P62807;P68431;P62805 1-486;2-130;2-126;26-136;2-103, |H3.1 del1-24;A25C;C96S;C110A); test: as above
[15] = target: MeCP2 full-length, e2 isoform;histone octamer, H3Kc27me3 (Homo sapiens;Homo sapiens, UniProt P51608;P0C0S8;P62807;P68431;P62805 1-486;2-130;2-126;2-136;2-103, |H3.1 K27C (trimethyl-lysine analogue, Kc27me3);C96S;C110A); test: EMSA; H3K27me3 histone octamer; no competitor DNA; 20 mM HEPES pH 7.5, 75 mM NaCl, 125 mM KCl, 50 uM EDTA, 2.5 mM beta-mercaptoethanol, 5% glycerol, BSA, 1.58 uM 47 bp competitor DNA (nucleosome assays); absent w
[16] = target: T2, MeCP2 MBD;histone octamer, H3Kc27me3; test: as above

HisMBP-DNMT3A 1-427, sequence (Q9Y6K1 1-427): as the sequence (Q9Y6K1 1-427 K54A/K56A) above, with A54K, A56K counted along it

B1: 40 bp dsDNA (dsDNA)
DNA 1: AATACGCGGCCGCCCTGGAGAATCCCGGTGCCGAGGCCGC
DNA 2: GCGGCCTCGGCACCGGGATTCTCCAGGGCGGCCGCGTATT
For B1, which Kd (HisMBP-DNMT3A 1-427) is on record?
Its Kd is 87.8 ± 5.2 nM.

What about the Kd (HisMBP-MeCP2 258-309) of the same binder?
The Kd was 167 ± 8.5 nM.

What about the Kd [1] of the same binder?
The Kd was 216 ± 9.2 nM.

And the Kd (HisMBP-MeCP2 162-309)?
Its Kd is 31.6 ± 1.7 nM.

Does B1 bind (HisMBP-MeCP2 272-309)?
Result: no binding

And the Kd (HisMBP-MeCP2 205-309)?
The Kd was 77.5 ± 4.8 nM.

And the Kd [2]?
Its Kd is 367 ± 27.5 nM.

B2: 15-N601-15 nucleosome 81 meCpA (nucleosome)
DNA 1: ATGGAACACATTGCACAGGATGTATATATCTGACACGTGCCTGGAGACTAGGGAGTAATCCCCTTGGCGGTTAAAACGCGGGGGACAGCGCGTACGTGCGTTTAAGCGGTGCTAGAGCTGTCTACGACCAATTGAGCGGCCTCGGCACCGGGATTCTCCAGGGCGGCCGCGTATT
DNA 2: AATACGCGGCCGCCCTGGAGAATCCCGGTGCCGAGGCCGCTCAATTGGTCGTAGACAGCTCTAGCACCGCTTAAACGCACGTACGCGCTGTCCCCCGCGTTTTAACCGCCAAGGGGATTACTCCCTAGTCTCCAGGCACGTGTCAGATATATACATCCTGTGCAATGTGTTCCAT
modifications: linker meCpA 81 bp from dyad
Which Kd [3] does the source give for B2 here?
Its Kd is 141 nM.

And the Kd [4]?
Its Kd is 424 nM.

And the Kd [5]?
The Kd was 442 nM.

And the Kd [6]?
The Kd was 382 nM.

And the Kd [7]?
The Kd was 334 nM.

And the Kd [8]?
The Kd was 295 nM.

B3: N601 nucleosome core particle -1 meCpG (nucleosome)
DNA 1: CAGGATGTATATATCTGACACGTGCCTGGAGACTAGGGAGTAATCCCCTTGGCGGTTAAAACGCGGGGGACAGCGCGTACGTGCGTTTAAGCGGTGCTAGAGCTGTCTACGACCAATTGAGCGGCCTCGGCACCGGGATTCTCCA
DNA 2: TGGAGAATCCCGGTGCCGAGGCCGCTCAATTGGTCGTAGACAGCTCTAGCACCGCTTAAACGCACGTACGCGCTGTCCCCCGCGTTTTAACCGCCAAGGGGATTACTCCCTAGTCTCCAGGCACGTGTCAGATATATACATCCTG
modifications: meCpG at -1
Which results are given for B3?
binding result [3]: no binding; Kd [9]: 51.5 nM; Kd [10]: 49.7 nM; Kd [11]: 44.2 nM; Kd [12]: 50.7 nM; Kd [13]: 35.5 nM; Kd [14]: 29.2 nM; Kd [15]: 56.8 nM; Kd [16]: 85.5 nM
